This test has as its target T1, MPER peptide (wild type, for epitope mapping) (HIV-1 HXB2).
T1 construct: also called wild-type MPER (WT); source: synthetic peptide
T1 chain: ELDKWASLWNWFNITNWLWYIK
Nature of the test: SPR. The note with it: both partners purified.

B1: rmAb 235 IgG1 (antibody, V domains shown)
VH: QVQLQQSGTDLVRPGTSVKVSCKASGYAFTTYFIEWVKQRPGQGLEWIGVINPGSGIPNYNEMFKGKATLTADKSSSTAYLHLSSLTSDDSAVYFCARAPYYYGSSYYYFDVWGAGTTVTVSS
VL: DIVMSQSPSSLAVSVGEKVTMSCKSSQSLLYSSNQKNYLAWYQQKPGQSPKLLIYWASTRDSGVPDRFTGSGSGTDFTLTISSVKAEDLAVYCCQQYYNYPFTFGAGTKLEIK
For the molecule B1, the binding result is given as “binds”.

B2: rmAb 460 IgG1 (antibody, V domains shown)
VH: EVQLQQSGAELVKPGASVKLSCTASGFNIKDTYMHWVKQRPEQGLEWIGRIDPANGNTKYDPKFQGKATITADTSSNTAYLQLSSLTSEDTAVYFCTRSRGYFGNYYFDYWGQGTTLTVSS
VL: QIVLTQSPAVMSASPGERVTMTCSASSSVSYMYWYQQKPRSSPKPWIYLTSNLASGVPARFSGSGSGTSYSLTISSMEAEDAATYYCQQWSSIPLTFGAGTKLELK
Turning to B2, the binding result was “binds”.

These data come from PMC10632514 (Nature Communications, 2023).
